According to patent US20240350583A1, “COMPOSITION FOR PREVENTING OR TREATING FIBROTIC DISEASES, COMPRISING HAPLN1” (Chung Ang University Industry Academic Cooperation …, priority 2021, published 2024):

B1: rhHAPLN1: recombinant human HAPLN1 protein of SEQ ID NO: 1 produced in CHO-K1 cells, stabilized in acetic acid buffer, sucrose, PS80, pH 5.0 (protein, listed as Homo sapiens)
chain: MKSLLLLVLISICWADHLSDNYTLDHDRAIHIQAENGPHLLVEAEQAKVFSHRGGNVTLPCKFYRDPTAFGSGIHKIRIKWTKLTSDYLKEVDVFVSMGYHKKTYGGYQGRVFLKGGSDSDASLVITDLTLEDYGRYKCEVIEGLEDDTVVVALDLQGVVFPYFPRLGRYNLNFHEAQQACLDQDAVIASFDQLYDAWRGGLDWCNAGWLSDGSVQYPITKPREPCGGQNTVPGVRNYGFWDKDKSRYDVFCFTSNFNGRFYYLIHPTKLTYDEAVQACLNDGAQIAKVGQIFAAWKILGYDRCDAGWLADGSVRYPISRPRRRCSPTEAAVRFVGFPDKKHKLYGVYCFRAYN

Key:
Assay type in all cases: cell-based
[1] = system: renal proximal tubule epithelial cell (RPTEC); assay: Age-induced fibrosis of RPTEC (passage 11), αSMA immunofluorescence; details: aged cells (11th passage culture), 72 hours
Protocol: (1) Renal proximal tubule epithelial cell ([…]) in 12-well plates and cultured in complete renal epithelial cell medium (ATCC PCS-400-030+ATCC PCS-400-040) in an incubator at 37° C. 5% CO2 for 24 hours.
(2) Subsequently, the plates were then treated with the composition of the present disclosure (rhHAPLN1 protein content of 0, 10, 20, 50 and 100 ng/ml) and pirfenidone 0.2 mg/mL (200 μg/mL), respectively, and cultured for 72 hours.
(3) Afterwards, each well was washed twice with PBS, then treated with 4% paraformaldehyde and fixed for 1 hour.
(4) After washing four times with 1×PBS, the wells were treated with 1×PBST (1×PBS+0.1% Triton X-100) containing 1% BSA and blocked for 2 hours.
(5) Primary antibody against αSMA (Abcam ab7817) was diluted 1:200 in 1×PBSTdp and treated and incubated overnight at 4° C.
(6) The next day, the blot was washed four times with 1×PBST.
(7) After treatment with secondary antibody (anti-mouse IgG Alexa Fluor™ 488 1:500 (Invitrogen, A28175)) and DAPI 1:2000 (Invitrogen, D1306), the cells were incubated at room temperature for 1 hour.
(8) Afterwards, 50 ul of Vectashield (Vectorlabs, H-1000) was added, covered with a coverslip, and photographed with a fluorescence microscope.

[2] = system: normal human lung fibroblast (NHLF); assay: TGFβ1-induced fibrosis of normal human lung fibroblasts, αSMA western blot
Protocol: (1) normal human lung fibroblasts (NHLF) cultured for 9 passages were seeded (1.0×10^5 cells/well) in a 6-well plate and incubated in FBM-2 (Fibroblast Growth Medium-2, CC-3131, Lonza) medium for 24 hours in an incubator at 37° C. 5% CO2. (2) After replacing with serum-free medium, the medium was incubated for 24 hours.
(3) In this regard, under conditions in which fibrosis was induced by treatment with TGFβ1 (10 ng/ml), each well of the plate was treated with the composition of the present disclosure with rhHAPLN1 protein content of 0, 3.1, 12.5, 25 and 100 ng/ml and 100 μg/mL and 200 μg/mL of pirfenidone (Selleckchem), respectively, and incubated for 24 hours.
(4) Afterwards, each sample was washed twice with phosphate buffered saline (PBS, pH 7.2), and then the expression level of αSMA, a marker for myofibroblasts, was confirmed by western blot.

[3] = system: human cardiac microvascular endothelial cell (HCMEC); assay: TGFβ1-induced fibrosis of human cardiac microvascular endothelial cells, αSMA western blot
Protocol: (1) Primary human cardiac microvascular endothelial cell (HCMEC; ScienCell, #6000) were seeded (5.7×10^4 cells/well) in a 6-well plate according to the experimental scheme of FIG. 4A and incubated in Endothelial cell medium (ScienCell) for 24 hours in an incubator at 37° C. 5% CO2.
(2) The plates were then treated with TGFβ1 (5 ng/ml) to induce fibrosis and incubated for 3 days.
(3) Afterwards, each well of the plate was then treated with the composition of the present disclosure at rhHAPLN1 protein content of 0, 3, 10, 30, and 100 ng/ml and pirfenidone 100 μg/mL and 200 μg/mL, respectively, and incubated for 3 days.
(4) Each sample was then treated with cell lysis buffer and harvested.
(5) Western blotting was performed on the samples. Here, anti-αSMA Ab (Abcam, ab7817), anti-GAPDH Ab (Santa Cruz, sc-32233) were used as primary antibodies and HRP-conjugated anti-mouse IgG Ab (CST, #7076) as secondary antibodies to confirm the protein expression levels of αSMA and GAPDH.

[4] = all rhHAPLN1 contents, pirfenidone 100 and 200 μg/mL

Molecule	αSMA stained fluorescent areas (FIG. 10B) ([1]; pirfenidone 0.2 mg/ml)	anti-fibrotic effect (expression level of αSMA compared to composition without rhHAPLN1) ([2]; pirfenidone 100 and 200 μg/mL)	expression level of αSMA compared to composition that does not include rhHAPLN1 protein ([3]; pirfenidone 100 and 200 μg/mL)	αSMA stained fluorescent areas compared to composition without rhHAPLN1 (FIG. 10B) ([1]; rhHAPLN1 50 ng/ml and 100 ng/ml)	expression level of αSMA compared to composition that does not include rhHAPLN1 protein (FIG. 5B) ([2]; TGFβ1 10 ng/ml, rhHAPLN1 3.1, 12.5, 25, 100 ng/ml, 24 hours)	anti-fibrotic action from αSMA western blot band, compared to pirfenidone (FIG. 5A) [2, 4]	anti-fibrotic efficacy relative to pirfenidone at 100 μg/mL and at 200 μg/mL ([2]; rhHAPLN1 12.5 ng/ml)	rhHAPLN1 protein content showing the most excellent anti-fibrotic efficacy ([2]; αSMA) [ng/mL]	expression level of αSMA compared to composition that does not include rhHAPLN1 protein (FIG. 4C) ([3]; TGFβ1 5 ng/ml 3 days, then rhHAPLN1 3, 10, 30, 100 ng/ml 3 days)	anti-fibrotic action from αSMA western blot band, compared to pirfenidone (FIG. 4B) [3, 4]	rhHAPLN1 protein content showing the most excellent anti-fibrotic efficacy ([3]; αSMA) [ng/mL]
Cc1ccc(=O)n(-c2ccccc2)c1 [pirfenidone, reference compound]	fewer stained fluorescent areas appeared	no anti-fibrotic effect	higher than when treated with a composition that does not include rhHAPLN1 protein								
B1				fewer stained fluorescent areas appeared	significantly lower	much better anti-fibrotic action compared to pirfenidone	about twice as higher	12.5	significantly lower	much better anti-fibrotic action compared to pirfenidone	3
